Patent publication US20200115447A1 (Chugai, published 2020)
Positions count from the first letter of the chain named. Each block holds one binder with its values, some of them ahead of it.

Assays:
[1] = molecular target: T1, soluble human IL-6 receptor (human, UniProt P08887 20-357); assay: SPR (Biacore T100), antibody captured via protein A/G on a CM5 chip, human IL-6 receptor injected for 3 min, 1.2 mM CaCl2, pH 7.4, 37 C
T1 construct: also called hsIL-6R
T1 sequence: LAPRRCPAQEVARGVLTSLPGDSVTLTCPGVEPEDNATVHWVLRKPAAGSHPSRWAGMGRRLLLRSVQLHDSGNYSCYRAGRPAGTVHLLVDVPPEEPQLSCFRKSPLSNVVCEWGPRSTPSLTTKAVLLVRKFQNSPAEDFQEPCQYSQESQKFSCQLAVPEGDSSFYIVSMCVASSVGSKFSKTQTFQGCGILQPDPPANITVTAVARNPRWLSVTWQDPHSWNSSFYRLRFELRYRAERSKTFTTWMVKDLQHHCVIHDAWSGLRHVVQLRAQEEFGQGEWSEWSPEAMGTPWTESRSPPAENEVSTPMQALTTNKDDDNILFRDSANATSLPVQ
Protocol: Interaction analyses were performed in a solution with a calcium ion concentration of 1.2 mM for the high calcium ion concentration condition or 3 μM for the low calcium ion concentration condition. A suitable amount of protein A/G (Invitrogen) was immobilized onto a Sensor chip CM5 (GE Healthcare) by the amine coupling method, and then antibodies of interest were captured onto the chips. Two types of buffers, 20 mM ACES, 150 mM NaCl, 0.05% (w/v) Tween 20, 1.2 mM CaCl₂ (pH 7.4) or 20 mM ACES, 150 mM NaCl, 0.05% (w/v) Tween 20, 3 μM CaCl₂ (pH 7.4), were used as the running buffer. […] All measurements were taken at 37° C.
Then, 10 mM glycine-HCl (pH 1.5) was injected at a flow rate of 30 μL/min for 30 seconds to regenerate the sensor chip.

human FcRn [2] = molecular target: T2, human FcRn (human); assay: Biacore SPR, antibody captured on protein L, human FcRn as analyte, pH 7.0, 25 C
T2 construct: also called soluble human FcRn complexed with β2-microglobulin
Protocol: (§1) Kinetic analyses between human FcRn and the antibody were carried out using Biacore T100 (GE Healthcare). A suitable amount of protein L (ACTIGEN) was immobilized onto a Sensor chip CM4 (GE healthcare) by the amine coupling method, and antibodies of interest were captured onto it. Next, diluted solutions of FcRn and the running buffer which is the blank were injected, and human FcRn was made to interact with the antibodies captured on the sensor chip. The running buffer used was 50 mmol/L sodium phosphate, 150 mmol/L NaCl, 0.05% (w/v) Tween 20, pH7.0, and the buffer was used for the FcRn dilutions. The sensor chip was regenerated using 10 mmol/L Glycine-HCl, pH1.5. All measurements were carried out at 25° C. Based on the association rate constant ka (1/Ms) and dissociation rate constant kd (1/s), which are kinetic parameters, calculated from the sensorgram obtained by the measurement, the KD (M) (affinity) of each antibody toward human FcRn was calculated. Each parameter was calculated using the Biacore T100 Evaluation Software (GE Healthcare).

[3] = molecular target: T1, soluble human IL-6 receptor; assay: SPR (Biacore T100), about 300 RU of antibody captured via protein A/G on a CM5 chip, human IL-6 receptor injected for 3 min, pH 7.4, 1.2 mM CaCl2, 37 C
Protocol: The interaction for the antigen-antibody reaction was analyzed in solutions at pH 7.4 and pH 6.0, corresponding to a neutral pH and acidic pH conditions, respectively. An appropriate amount of Protein A/G (Invitrogen) was immobilized onto a Sensor chip CM5 (GE Healthcare) by an amino coupling method, and about 300 RU each of antibodies of interest were captured onto the chip. The two types of running buffers used were: 20 mM ACES/150 mM NaCl/0.05% (w/v) Tween20/1.2 mM CaCl₂ (pH 7.4); and 20 mM ACES/150 mM NaCl/0.05% (w/v) Tween20/1.2 mM CaCl₂ (pH 6.0). […] All measurements were carried out at 37° C.
Then, 10 mM glycine-HCl (pH 1.5) was injected at a flow rate of 30 μl/min for 30 seconds to regenerate the sensor chip.

human FcRn [4] = molecular target: T3, human FcRn (human); assay: Biacore SPR, pH7.0, against VH3/L(WT)-IgG1
T3 construct: also called soluble human FcRn complexed with β2-microglobulin
Protocol: as §1

human FcRn [5] = molecular target: T4, human FcRn (human); assay: Biacore, pH 7.0
T4 construct: also called soluble human FcRn complexed with β2-microglobulin
Protocol: as §1

[6] = molecular target: T5, mFcγRI extracellular domain with C-terminal His-tag (mouse, UniProt P26151 25-297); assay: Biacore SPR, antibody captured on Protein L, FcγR extracellular domain as analyte, 25 C
T5 construct: extracellular domain; also called mouse FcγRI
T5 sequence (looked up): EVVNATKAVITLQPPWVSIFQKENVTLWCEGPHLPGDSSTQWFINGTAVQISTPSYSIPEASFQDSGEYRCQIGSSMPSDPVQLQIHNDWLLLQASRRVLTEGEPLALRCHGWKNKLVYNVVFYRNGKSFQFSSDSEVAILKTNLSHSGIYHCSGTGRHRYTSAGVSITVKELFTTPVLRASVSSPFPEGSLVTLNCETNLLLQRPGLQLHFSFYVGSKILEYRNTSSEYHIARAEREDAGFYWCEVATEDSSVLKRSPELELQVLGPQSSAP
Protocol: (§2) Analysis of interaction between each of the altered antibodies and the extracellular domain of the Fcγ receptor prepared as mentioned above was carried out using Biacore T100 (GE Healthcare), Biacore T200 (GE Healthcare), Biacore A100, and Biacore 4000. HBS-EP+(GE Healthcare) was used for the running buffer, and the interactions were measured with a measurement temperature at 25° C. Chips produced by immobilizing Protein L (ACTIGEN or BioVision) by the amine coupling method to a Series S sensor Chip CM5 (GE Healthcare) or Series S sensor Chip CM4 (GE Healthcare) were used.
After capturing of each of the altered antibodies onto these sensor chips, the extracellular domain of the Fcγ receptor diluted with the running buffer was allowed to act on the chips to measure the binding level of each of the domains to each of the antibodies, and the binding levels were compared. However, since the amount of the bound extracellular domain of the Fcγ receptor depends on the amount of the antibodies captured on the sensorchip, the amount of the bound extracellular domain of the Fcγ receptor was divided by the respective amount of captured antibody to obtain corrected values, and these values were compared. Furthermore, by reaction with 10 mM glycine-HCl having pH of 1.5, antibodies captured onto the sensor chips were washed, and the regenerated sensor chips were used repeatedly.

[7] = molecular target: T6, mFcγRII extracellular domain with C-terminal His-tag (mouse, UniProt P08101 30-210); assay: Biacore SPR, antibody captured on Protein L, FcγR extracellular domain as analyte, 25 C, 1:1 Langmuir fit
T6 construct: extracellular domain; also called mouse FcγRII
T6 sequence (looked up): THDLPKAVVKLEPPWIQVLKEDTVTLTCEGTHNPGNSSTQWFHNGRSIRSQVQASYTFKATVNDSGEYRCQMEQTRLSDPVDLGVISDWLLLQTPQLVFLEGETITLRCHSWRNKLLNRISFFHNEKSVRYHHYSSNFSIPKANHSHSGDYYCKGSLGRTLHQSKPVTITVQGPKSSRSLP
Protocol: as §2
(§3) The KD values of each of the altered antibodies for the extracellular domain of the Fcγ receptor were calculated according to the following kinetic analysis method.

[8] = molecular target: T7, mFcγRIII extracellular domain with C-terminal His-tag (mouse, UniProt P08508 31-215); assay: as above
T7 construct: extracellular domain; also called mouse FcγRIII
T7 sequence (looked up): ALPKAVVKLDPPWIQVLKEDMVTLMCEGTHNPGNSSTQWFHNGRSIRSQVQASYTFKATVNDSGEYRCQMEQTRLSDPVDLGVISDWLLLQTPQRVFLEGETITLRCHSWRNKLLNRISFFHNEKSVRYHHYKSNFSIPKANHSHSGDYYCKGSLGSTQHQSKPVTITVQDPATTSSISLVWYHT
Protocol: as §2, §3

[9] = molecular target: T5, mFcγRI extracellular domain with …; assay: as above
Protocol: as §2, §3

[10] = molecular target: T8, mFcγRIV extracellular domain with C-terminal His-tag (mouse); assay: as above
T8 construct: extracellular domain; also called mouse FcγRIV
T8 sequence (A0A0B4J1G0 21-203, looked up): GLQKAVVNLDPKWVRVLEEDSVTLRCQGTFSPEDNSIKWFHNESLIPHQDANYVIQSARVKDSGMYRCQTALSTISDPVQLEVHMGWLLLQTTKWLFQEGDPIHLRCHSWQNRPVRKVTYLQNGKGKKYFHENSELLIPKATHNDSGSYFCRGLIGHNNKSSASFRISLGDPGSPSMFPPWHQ
Protocol: as §2, §3

mouse FcRn = molecular target: T9, mouse FcRn (mouse, UniProt Q61559 22-297; P01887 21-119, limits assumed); assay: Biacore SPR, mouse FcRn, pH 7.0
T9 sequence (looked up) 1: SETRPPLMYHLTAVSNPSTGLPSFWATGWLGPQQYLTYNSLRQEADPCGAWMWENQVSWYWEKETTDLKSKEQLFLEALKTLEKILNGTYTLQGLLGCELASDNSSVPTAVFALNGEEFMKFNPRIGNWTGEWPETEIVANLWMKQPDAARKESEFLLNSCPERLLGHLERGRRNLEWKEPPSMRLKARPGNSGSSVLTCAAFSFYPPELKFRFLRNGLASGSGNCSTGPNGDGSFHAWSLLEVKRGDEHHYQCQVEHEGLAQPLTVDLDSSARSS
T9 sequence (looked up) 2: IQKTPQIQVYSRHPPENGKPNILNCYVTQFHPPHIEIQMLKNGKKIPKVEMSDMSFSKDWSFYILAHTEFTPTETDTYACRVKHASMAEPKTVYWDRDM

- binding result [1]: binds
B1: Tocilizumab (antibody, human IgG1, kappa, V domains shown)
VH: QVQLQESGPGLVRPSQTLSLTCTVSGYSITSDHAWSWVRQPPGRGLEWIGYISYSGITTYNPSLKSRVTMLRDTSKNQFSLRLSSVTAADTAVYYCARSLARTTAMDYWGQGSLVTVSS
VL: DIQMTQSPSSLSASVGDRVTITCRASQDISSYLNWYQQKPGKAPKLLIYYTSRLHSGVPSRFSGSGSGTDFTFTISSLQPEDIATYYCQQGNTLPYTFGQGTKVEIKR
notes: also called anti-IL-6R antibody (tocilizumab); control antibody

- Kd (human FcRn [2]): 0.031 µM
B2: F1430 (antibody, IgG1, name in EU numbering)
heavy: QVQLQESGPGLVKPSETLSLTCAVSGHSISHDHAWSWVRQPPGEGLEWIGFISYSGITNYNPSLQGRVTISRDNSKNTLYLQMNSLRAEDTAVYYCARSLARTTAMDYWGEGTLVTVSSASTKGPSVFPLAPSSKSTSGGTAALGCLVKDYFPEPVTVSWNSGALTSGVHTFPAVLQSSGLYSLSSVVTVPSSSLGTQTYICNVNHKPSNTKVDKKVEPKSCDKTHTCPPCPAPELRGGPKVFLFPPKPKDTLYISREPEVTCVVVDVSHEDPEVKFNWYVDGVEVHNAKTKPREEQYNSTYRVVSKLTPLHQDWLNGKEYKCKVSNKALPAPIEKTISKAKGQPREPQVYTLPPSRDELTKNQVSLTCLVKGFYPSDIAVEWESNGQPENNYKTTPPVLDSDGSFFLYSKLTVDKSRWQQGNVFSCSVMHEALDYHVTRKELSLSP
light: not shown
notes: EU numbering; copies: 2 + 2

- binding result [1]: binds
B3: 6RC1IgG_019 (antibody, V domains shown)
VH: EVQLVQSGAEVKKPGSSVKVSCKASGGTFSSYAISWVRQAPGQGLEWMGGIIPIFGTANYAQKFQGRVTITADESTSTAYMELSSLRSEDTAVYYCARDRGSGFNWGNYAFDIWGQGFSVTVSS
VL: DIQMTQSPSSLSASVGDRVTITCRASQSIEDDLAWYQQKPGKAPKLLIYEASNLQSGVPSRFSGSGSGTDFTLTISSLQPEDFATYYCQQYDRYPYTFGQGTKVEIKR

- binding result [3]: binds
B4: 6RpH#02 (antibody, human IgG1, kappa, V domains shown)
VH: QVQLVQSGAEVKKPGSSVKVSCKASGGTFSSYAISWVRQAPGQGLEWMGGIIPIFGTANYAQKFQGRVTITADESTSTAYMELSSLRSEDTAVYYCMINGVWEGGMDVWGQGTTVTVSS
VL: DIQMTQSPSSLSASVGDRVTITCRASQSIHSHLNWYQQKPGKAPKLLIYHASKLQSGVPSRFSGSGSGTDFTLTISSLQPEDFATYYCQQHGNSPLTFGQGTKVEIKR

- binding result [3]: binds
B5: 6RpH#01 (antibody, human IgG1, kappa, V domains shown)
VH: EVQLVQSGAEVKKPGSSVKVSCKASGGTFSSYAISWVRQAPGQGLEWMGGIIPIFGTANYAQKFQGRVTITADESTSTAYMELSSLRSEDTAVYYCARASIYCSSTSCYEPPYYYYMDVWGKGTMVTVSS
VL: B4 VL with H30S, N34A, H50A, K53H, H91S, G92H, S94Y

- binding result [1]: binds
B6: 6RC1IgG_012 (antibody, V domains shown)
VH: QVQLVQSGAEVKKPGASVKVSCKASGYTFTSYGISWVRQAPGQGLEWMGWISAYNGNTNYAQKLQGRVTMTTDTSTSTAYMELRSLRSDDTAVYYCARATYYYDSSAPAFDIWGQGTMVTVSS
VL: B3 VL with N53T, Y91H, R93D, Y94S, Y96L

- binding result [1]: binds
B7: 6RC1IgG_010 (antibody, V domains shown)
VH: QVQLVQSGAEVKKPGSSVKVSCKASGGTFSSYAISWVRQAPGQGLEWMGGIIPIFGTANYAQKFQGRVTITADESTSTAYMELSSLRSEDTAVYYCARAAFLEWPIWGSEYFQHWGQGTLVTVSS
VL: B3 VL with E50H, N53S, Y91R, R93S, Y96L

- fold affinity relative to IgG1 (human FcRn [4]): ~600 fold
B8: IgG1-F157 (antibody)
heavy: QVQLQESGPGLVKPSETLSLTCAVSGHSISHDHAWSWVRQPPGEGLEWIGFISYSGITNYNPSLQGRVTISRDNSKNTLYLQMNSLRAEDTAVYYCARSLARTTAMDYWGEGTLVTVSSASTKGPSVFPLAPSSKSTSGGTAALGCLVKDYFPEPVTVSWNSGALTSGVHTFPAVLQSSGLYSLSSVVTVPSSSLGTQTYICNVNHKPSNTKVDKKVEPKSCDKTHTCPPCPAPELLGGPSVFLFPPKPKDTLMISRTAEVTCVVVDVSHEDPEVKFNWYVDGVEVHNAKTKPREEQYNSTYRVVSVLTPLHQDWLNGKEYKCKVSNKALPAPIEKTISKAKGQPREPQVYTLPPSRDELTKNQVSLTCLVKGFYPSDIAVEWESNGQPENNYKTTPPVLDSDGSFFLYSKLTVDKSRWQQGNVFSCSVLHEALHYHYTQKSLSLSP
light: not shown
notes: EU numbering; also called VH3/L(WT)-F157; copies: 2 + 2

- Kd (human FcRn [5]): 0.133 µM
B9: F1353 (antibody)
heavy: B2 heavy with E258T, K307V, P310V, V438T
light: not shown
notes: EU numbering; copies: 2 + 2

- binding result [6]: no binding
- Kd [7]: 0.57 µM
- Kd [8]: 0.085 µM
B10: Fv4-mIgG1 (antibody)
heavy: QVQLQESGPGLVKPSETLSLTCAVSGHSISHDHAWSWVRQPPGEGLEWIGFISYSGITNYNPSLQGRVTISRDNSKNTLYLQMNSLRAEDTAVYYCARSLARTTAMDYWGEGTLVTVSSAKTTPPSVYPLAPGSAAQTNSMVTLGCLVKGYFPEPVTVTWNSGSLSSGVHTFPAVLQSDLYTLSSSVTVPSSTWPSETVTCNVAHPASSTKVDKKIVPRDCGCKPCICTVPEVSSVFIFPPKPKDVLTITLTPKVTCVVVDISKDDPEVQFSWFVDDVEVHTAQTQPREEQFNSTFRSVSELPIMHQDWLNGKEFKCRVNSAAFPAPIEKTISKTKGRPKAPQVYTIPPPKEQMAKDKVSLTCMITDFFPEDITVEWQWNGQPAENYKNTQPIMDTDGSYFVYSKLNVQKSNWEAGNTFTCSVLHEGLHNHHTEKSLSHSPGK
light: DIQMTQSPSSLSASVGDSVTITCQASTDISSHLNWYQQKPGKAPELLIYYGSHLLSGVPSRFSGSGSGTDFTFTISSLEAEDAATYYCGQGNRLPYTFGQGTKVEIERADAAPTVSIFPPSSEQLTSGGASVVCFLNNFYPKDINVKWKIDGSERQNGVLNSWTDQDSKDSTYSMSSTLTLTKDEYERHNSYTCEATHKTSTSPIVKSFNRNEC
notes: VH3-mIgG1 with VL3-mCK; copies: 2 + 2

- Kd [9]: 0.0039 µM
- Kd [10]: 0.0032 µM
- Kd [7]: 0.48 µM
- Kd [8]: 0.045 µM
B11: Fv4-mIgG2a (antibody)
heavy: QVQLQESGPGLVKPSETLSLTCAVSGHSISHDHAWSWVRQPPGEGLEWIGFISYSGITNYNPSLQGRVTISRDNSKNTLYLQMNSLRAEDTAVYYCARSLARTTAMDYWGEGTLVTVSSAKTTAPSVYPLAPVCGDTTGSSVTLGCLVKGYFPEPVTLTWNSGSLSSGVHTFPAVLQSDLYTLSSSVTVTSSTWPSQSITCNVAHPASSTKVDKKIEPRGPTIKPCPPCKCPAPNLLGGPSVFIFPPKIKDVLMISLSPIVTCVVVDVSEDDPDVQISWFVNNVEVHTAQTQTHREDYNSTLRVVSALPIQHQDWMSGKEFKCKVNNKDLPAPIERTISKPKGSVRAPQVYVLPPPEEEMTKKQVTLTCMVTDFMPEDIYVEWTNNGKTELNYKNTEPVLDSDGSYFMYSKLRVEKKNWVERNSYSCSVVHEGLHNHHTTKSFSRTPGK
light: B10 light
notes: VH3-mIgG2a with VL3-mCK; copies: 2 + 2

- Kd (mouse FcRn): 0.0015 µM
- binding result [6]: no binding
- Kd [7]: 0.87 µM
- Kd [8]: 0.14 µM
B12: Fv4-mF3 (antibody, mouse IgG1, kappa)
heavy: B10 heavy with T248Y, T252E, H429K, N430F
light: B10 light
notes: VH3-mF3 with VL3-mCK; copies: 2 + 2

- Kd (mouse FcRn): 0.0035 µM
- Kd [9]: 0.00099 µM
- Kd [10]: 0.019 µM
- Kd [7]: 0.0081 µM
- Kd [8]: 0.0053 µM
B13: Fv4-mFa30 (antibody, mouse IgG2a, kappa)
heavy: B11 heavy with S241D, M254Y, S258E, K328D, L330Y, H435K, N436F
light: B10 light
notes: VH3-mFa30 with VL3-mCK; copies: 2 + 2
